Test results: paper PMC12062965, “Transposable Elements Drive Regulatory and Functional Innovation of F-box Genes”

Assays:
GST-FBXA-192 FL = target: T1, GST-FBXA-192 FL (Caenorhabditis elegans, UniProt Q9XUX2 1-401); test: EMSA; 50 mM Tris-HCl pH 7.5, 150 mM NaCl, 1 mM DTT, protease inhibitors, 2.5% glycerol, 77.3 nM DNA, 25 C 15 min; native 1.5% agarose gel in TBE at 4 C, SYBR Gold stain; conditions: protein: recombinant; tags: N-terminal GST; blunt
T1 sequence: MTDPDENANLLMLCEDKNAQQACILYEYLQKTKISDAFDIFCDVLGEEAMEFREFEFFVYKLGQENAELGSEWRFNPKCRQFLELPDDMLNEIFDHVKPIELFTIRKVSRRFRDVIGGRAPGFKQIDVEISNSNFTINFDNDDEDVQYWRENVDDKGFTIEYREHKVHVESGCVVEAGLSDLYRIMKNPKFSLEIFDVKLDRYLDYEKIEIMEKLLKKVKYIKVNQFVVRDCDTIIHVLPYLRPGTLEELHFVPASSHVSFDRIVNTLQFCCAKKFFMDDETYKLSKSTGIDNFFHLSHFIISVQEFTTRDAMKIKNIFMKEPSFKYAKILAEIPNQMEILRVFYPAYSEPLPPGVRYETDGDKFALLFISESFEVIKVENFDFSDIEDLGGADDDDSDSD

GST-FBXA-215 FL = target: T2, GST-FBXA-215 FL (Caenorhabditis elegans, UniProt A0A8S4Q9N7 1-401); test: as above; conditions: protein: recombinant; tags: N-terminal GST; blunt
T2 sequence: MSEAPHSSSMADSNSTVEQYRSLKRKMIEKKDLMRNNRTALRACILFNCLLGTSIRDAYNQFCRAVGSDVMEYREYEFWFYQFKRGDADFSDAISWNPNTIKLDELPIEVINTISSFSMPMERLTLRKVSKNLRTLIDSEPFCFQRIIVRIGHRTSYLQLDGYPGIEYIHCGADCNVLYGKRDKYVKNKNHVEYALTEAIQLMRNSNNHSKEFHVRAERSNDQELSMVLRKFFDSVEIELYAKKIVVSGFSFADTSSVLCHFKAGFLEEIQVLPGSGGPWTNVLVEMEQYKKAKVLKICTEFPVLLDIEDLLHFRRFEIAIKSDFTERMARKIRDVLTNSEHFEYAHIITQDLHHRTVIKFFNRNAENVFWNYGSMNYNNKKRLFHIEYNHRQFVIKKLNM

B1: Mos1 right TIR (IRR100) (dsDNA)
DNA 1: TTTCTTTTTCCACAAAATTTAACGTGTTTTTTGATTTAAAAAAAACGACATTTCATACTTGTACACCTGA
DNA 2: TCAGGTGTACAAGTATGAAATGTCGTTTTTTTTAAATCAAAAAACACGTTAAATTTTGTGGAAAAAGAAA
binding result (GST-FBXA-192 FL): no binding | binding result (GST-FBXA-215 FL): no binding
